Laboratory results taken from patent publication US20150098924A1 (TOPOTARGET SWITZERLAND, published 2015).

B1: MegaFasL (fusion polypeptide m or hACRP30:hFasL) (ligand)
chain: QLFHLQKELAELRESTSQMHTASSLEKQIGHPSPPPEKKELRKVAHLTGKSNSRSMPLEWEDTYGIVLLSGVKYKKGGLVINETGLYFVYSKVYFRGQSCNNLPLSHKVYMRNSKYPQDLVMMEGKMMSYCTTGQMWARSSYLGAVFNLTSADHLYVNVSELSLVNFEESQTFFGLYKL

Target: T1, Fas receptor (human, UniProt P25445 26-335)
T1 sequence (looked up): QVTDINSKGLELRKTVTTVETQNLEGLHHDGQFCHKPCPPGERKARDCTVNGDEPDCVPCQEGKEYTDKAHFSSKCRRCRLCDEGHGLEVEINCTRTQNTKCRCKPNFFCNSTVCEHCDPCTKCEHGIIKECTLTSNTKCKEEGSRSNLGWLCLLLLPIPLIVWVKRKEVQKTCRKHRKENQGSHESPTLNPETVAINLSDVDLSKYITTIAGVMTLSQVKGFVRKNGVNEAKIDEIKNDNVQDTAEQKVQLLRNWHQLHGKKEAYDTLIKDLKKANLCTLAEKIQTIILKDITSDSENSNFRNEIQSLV
Assay: cell-based or functional assay

Molecule | IC50 (ng/ml), PESMTS survival assay, ARH-77 cells [ng/mL] | IC50 (ng/ml), PESMTS survival assay, DOHH2 cells [ng/mL] | IC50 (ng/ml), PESMTS survival assay, HL60 (AML-M3) cells [ng/mL] | IC50 (ng/ml), PESMTS survival assay, Jurkat cells [ng/mL] | IC50 (ng/ml), PESMTS survival assay, K562 cells [ng/mL] | IC50 (ng/ml), PESMTS survival assay, NB4 (AML-M3) cells [ng/mL] | IC50 (ng/ml), PESMTS survival assay, Namalwa (ALL-L3) cells [ng/mL] | IC50 (ng/ml), PESMTS survival assay, RPMI-8226 cells [ng/mL] | IC50 (ng/ml), PESMTS survival assay, Raji (ALL-L3) cells [ng/mL] | IC50 (ng/ml), PESMTS survival assay, SC-1 cells [ng/mL] | IC50 (ng/ml), PESMTS survival assay, U266 cells [ng/mL] | IC50 (ng/ml), PESMTS survival assay, OPM2 cells [ng/mL]
CH11 (antibody) | > 10000 | > 10000 | > 10000 | 6.58 | > 10000 | > 10000 | > 10000 | > 10000 | 15.8 | > 10000 | > 10000 | –
B1 | 10.4 | 1.17 | 213 | 0.06 | > 10000 | 16 | 57 | 3.57 | 5.6 | > 10000 | 6.2 | 2.19
